T1: RBOHF-His (RBOHF residues 1-387 in pET28A) (Arabidopsis, UniProt O48538 1-387)
T1 construct: RBOHF of Arabidopsis (AT1G64060), residues 1-387; Cloned into pET28A via EcoRI/XhoI; also called RBOHF with His tag; source: E. coli Rosetta (DE3)
T1 sequence (looked up): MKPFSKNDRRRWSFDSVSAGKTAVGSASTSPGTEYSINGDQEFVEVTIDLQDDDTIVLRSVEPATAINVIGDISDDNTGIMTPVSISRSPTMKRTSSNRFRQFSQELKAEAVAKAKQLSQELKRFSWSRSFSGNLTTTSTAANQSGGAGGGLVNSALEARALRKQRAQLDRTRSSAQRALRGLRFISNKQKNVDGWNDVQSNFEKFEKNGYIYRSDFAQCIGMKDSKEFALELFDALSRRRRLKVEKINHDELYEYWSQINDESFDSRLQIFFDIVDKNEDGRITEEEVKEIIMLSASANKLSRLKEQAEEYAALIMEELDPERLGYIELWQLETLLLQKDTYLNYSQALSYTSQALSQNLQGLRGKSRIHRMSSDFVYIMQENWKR

T2: DORN1-GST (DORN1 residues 344-616 in pGEX-4T-1) (Arabidopsis thaliana (Mouse-ear cress), UniProt Q9LSR8)
T2 chain: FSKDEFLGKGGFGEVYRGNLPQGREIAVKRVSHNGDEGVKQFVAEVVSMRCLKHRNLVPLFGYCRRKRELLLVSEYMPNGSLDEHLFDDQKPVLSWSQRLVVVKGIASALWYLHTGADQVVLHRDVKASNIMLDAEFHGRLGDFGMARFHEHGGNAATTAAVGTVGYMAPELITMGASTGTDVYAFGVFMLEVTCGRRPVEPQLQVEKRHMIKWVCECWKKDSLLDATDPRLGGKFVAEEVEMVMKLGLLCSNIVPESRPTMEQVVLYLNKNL


Key:
[1] = target: T1, RBOHF-His (RBOHF residues 1-387 in …); assay: pull-down; glutathione beads with 50 µg DORN1-GST or GST incubated with 50 µg RBOHF-His; 1% NP40, 150 mM NaCl, 50 mM Tris-HCl, 1 mM EDTA, pH 7.5; 4 °C, 2 h; immunoblot with anti-GST and anti-His; details: both partners purified
[2] = target: T2, DORN1-GST (DORN1 residues 344-616 in …); assay: GST pulldown with anti-His immunoblot

binding result [1]	binding result [2]	Binder
binds	–	DORN1-GST (DORN1 residues 344-616 in pGEX-4T-1) (domain or fragment, Arabidopsis, UniProt Q9LSR8 344-616, looked up, DORN1 of Arabidopsis (AT5G60300), residues 344-616; Printed both as DORN1-GST and as GST–DORN1; cloned into pGEX-4T-1 via EcoRI/XhoI; also called DORN-GST; source: E. coli Rosetta (DE3), on glutathione beads) FSKDEFLGKGGFGEVYRGNLPQGREIAVKRVSHNGDEGVKQFVAEVVSMRCLKHRNLVPLFGYCRRKRELLLVSEYMPNGSLDEHLFDDQKPVLSWSQRLVVVKGIASALWYLHTGADQVVLHRDVKASNIMLDAEFHGRLGDFGMARFHEHGGNAATTAAVGTVGYMAPELITMGASTGTDVYAFGVFMLEVTCGRRPVEPQLQVEKRHMIKWVCECWKKDSLLDATDPRLGGKFVAEEVEMVMKLGLLCSNIVPESRPTMEQVVLYLNKNL
–	binds	RBOHF-His (RBOHF residues 1-387 in pET28A) (protein) MKPFSKNDRRRWSFDSVSAGKTAVGSASTSPGTEYSINGDQEFVEVTIDLQDDDTIVLRSVEPATAINVIGDISDDNTGIMTPVSISRSPTMKRTSSNRFRQFSQELKAEAVAKAKQLSQELKRFSWSRSFSGNLTTTSTAANQSGGAGGGLVNSALEARALRKQRAQLDRTRSSAQRALRGLRFISNKQKNVDGWNDVQSNFEKFEKNGYIYRSDFAQCIGMKDSKEFALELFDALSRRRRLKVEKINHDELYEYWSQINDESFDSRLQIFFDIVDKNEDGRITEEEVKEIIMLSASANKLSRLKEQAEEYAALIMEELDPERLGYIELWQLETLLLQKDTYLNYSQALSYTSQALSQNLQGLRGKSRIHRMSSDFVYIMQENWKR

From paper PMC9409277, “Ethyl Vinyl Ketone Activates K^+ Efflux to Regulate Stomatal Closure by MRP4-Dependent eATP Accumulation Working Upstream of H2O2 Burst in Arabidopsis” (International Journal of Molecular Sciences, 2022)
